Reference: patent publication US20190083615A1 (Merck Sharp & Dohme, published 2019)
Several values for one entry are separate records, joined by “and”; a condition that tells them apart may be missing. Equal entries are not always repeated. Values belong to the binder of their own block, whether it stands above or below them.

Columns and labels:
[1] = biological target: T1, Human LAG3-His: [VEGF leader]-LAG3_H-[His9G] (human, UniProt P18627 23-450); assay: SPR (Biacore T200), antibody captured on goat anti-mouse Fc, human LAG3-His as analyte, 1:1 Langmuir fit
T1 construct: also called human LAG3-His tagged recombinant protein; hLAG3-His
T1 sequence: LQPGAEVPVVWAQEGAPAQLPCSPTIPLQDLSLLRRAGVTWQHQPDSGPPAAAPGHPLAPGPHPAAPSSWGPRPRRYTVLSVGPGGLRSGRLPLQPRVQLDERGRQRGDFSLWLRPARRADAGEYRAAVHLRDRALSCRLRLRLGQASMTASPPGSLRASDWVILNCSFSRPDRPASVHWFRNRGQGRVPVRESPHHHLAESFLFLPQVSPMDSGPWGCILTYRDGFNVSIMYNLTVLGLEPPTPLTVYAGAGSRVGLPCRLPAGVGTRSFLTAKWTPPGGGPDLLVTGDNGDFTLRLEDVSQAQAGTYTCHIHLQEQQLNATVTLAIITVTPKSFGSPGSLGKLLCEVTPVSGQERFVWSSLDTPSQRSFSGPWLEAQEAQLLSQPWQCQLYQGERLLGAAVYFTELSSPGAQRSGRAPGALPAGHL
Protocol: Mouse anti-human LAG3 clones listed above were injected over the immobilized goat anti-mouse surfaces at 1 ug/mL for a capture level of 40 RU. HBS-EP+ buffer (BR-1006-69) was used as the running buffer with a flow rate of 30 μL/min.
Varying concentrations of human LAG3-His protein ranging from 0.15 nM to 18.8 nM, at a flow rate of 40 μL/min were injected over the antibody surfaces.
Background subtraction binding sensorgrams were used for analyzing the rate constant of association (kₐ) and dissociation (kd), and the equilibrium dissociation constant KD. The resulting data sets were fitted with a 1:1 Langmuir Binding Model using the Biacore T200 evaluation software (version 2.0).

[2] = biological target: T2, human LAG3-huFc recombinant protein (human, UniProt P18627 23-450, limits assumed, biotinylated in the runs with humanized and chimeric antibodies (Example 11)); assay: flow cytometry, blockade of human LAG3-huFc binding to MHC class II on Daudi cells
T2 construct: also called human LAG3-Fc; huLAG3-huFc; not shown: human Fc
T2 sequence: T1 sequence
Protocol: (§1) Mouse anti-human LAG3 clones were tested for their ability to block hLAG3 interaction with human MHC Class II. Daudi cells (ATCC #CCL-213) were used as a cell line positive for human MHC class II expression. Daudi cells were blocked with 10 ug/ml of goat IgG in HBSS and 2% BCS on ice for 30 minutes and 0.5×10⁶ cells/sample were aliquoted into a 96-well V-bottom plate and blocking buffer removed. […] Cells were pelleted by centrifugation at 1200 rpm and washed twice with HBSS/2% BCS. […] Cells were washed twice as described above, resuspended in HBSS/2% BCS and read on the FACSCalibur.

[3] = biological target: T3, human LAG3 (Lymphocyte Activation Gene-3) expressed on cells (human, UniProt P18627 23-525); assay: cell-based or functional assay
T3 sequence: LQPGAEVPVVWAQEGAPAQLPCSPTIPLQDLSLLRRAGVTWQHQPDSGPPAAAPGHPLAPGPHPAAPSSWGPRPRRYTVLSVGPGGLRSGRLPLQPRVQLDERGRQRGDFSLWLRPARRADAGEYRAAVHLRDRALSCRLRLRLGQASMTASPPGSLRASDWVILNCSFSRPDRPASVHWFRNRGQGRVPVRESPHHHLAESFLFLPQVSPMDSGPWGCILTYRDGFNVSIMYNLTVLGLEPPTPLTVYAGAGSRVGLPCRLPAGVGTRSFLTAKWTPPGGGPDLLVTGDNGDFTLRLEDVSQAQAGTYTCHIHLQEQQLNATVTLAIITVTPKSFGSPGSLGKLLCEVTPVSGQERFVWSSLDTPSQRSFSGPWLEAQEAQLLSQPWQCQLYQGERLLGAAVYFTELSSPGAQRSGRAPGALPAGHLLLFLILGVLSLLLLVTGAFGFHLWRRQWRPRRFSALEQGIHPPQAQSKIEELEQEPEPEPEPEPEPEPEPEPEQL

[4] = biological target: T2, human LAG3-huFc recombinant protein; assay: flow cytometry, blockade of human LAG3-huFc (2 ug/ml) binding to MHC class II on Daudi cells
Protocol: as §1

[5] = biological target: T2, human LAG3-huFc recombinant protein; assay: flow cytometry, blockade of biotinylated human LAG3-huFc binding to MHC class II on Daudi cells, streptavidin-PE
Protocol: as §1, with “anti-human LAG3 and humanized anti-LAG3 clones were” for “anti-human LAG3 clones were”

[6] = biological target: T3, human LAG3 (Lymphocyte Activation …); assay: cell based KinExA, BaF/3 cells transfected with human LAG3 (n=2)
Protocol: The affinities of the LAG3 antibodies for LAG3 were determined using a cell based Kinetic Exclusion Assay (KinExA). Cell based KinExA can be used to measure the affinity of a molecule for a binding partner on a cell surface (Rathanaswami et al. Analylitical Biochemistry 373(1): 52-60 (2008); Xie et al. J. Immunol. Methods 304 (1-2): 1-14 (2005)). In this case, BaF/3 cells were stably transfected with human and cynomolgus monkey LAG3 proteins. Transfected cells or the parental BaF/3 control cell line were grown to a density of 1.7×10⁶ to 3.2×10⁶ cells per ml at 37° C., 120 RPM, 5% CO₂, in 1X RPMI 1640 media with 10% FBS, 10 ng/ml IL-3, 5 μg/ml puromycin. Cells were concentrated, mixed with 15 pM or 150 pM antibody in cell culture media and incubated 24 to 48 hours at room temperature while rotating at 20 to 30 RPM. Cells were present at a top concentration of 2×10⁷ cells per ml (parental BaF/3 or cynomolgus LAG3 transfectants) or 1×10⁷ cells per ml (human LAG3 transfectants) and diluted in a 2-fold, 18 member series. The cells were pelleted and free antibody in the supernatant was measured using a KinExA 3200 instrument (Sapidyne, Id., USA). […] Antibody on the beads was labeled with 1.5 μg/ml Alexa Fluor® 647 conjugated goat anti-human (Fab′)₂ (Jackson ImmunoResearch Laboratories), washed and the fluorescent signal was read all using the KinExA™ 3200. The data from the 15 pM and 150 pM concentrations of each antibody were fit simultaneously using KinExA™ Pro n-Curve Analysis software version 4.0.11 (Sapidyne).

[7] = biological target: T3, human LAG3 (Lymphocyte Activation …); assay: flow cytometry, PHA-activated human CD8+ T cells (3 donors)
Protocol: (§2) Binding of LAG-3 mAb clones to primary T-cells was assessed using human and cynomolgous monkey (cyno) peripheral blood mononuclear cells (PBMC). Human blood was obtained from the local donors; cyno blood was obtained from Bioreclamation. PBMC were isolated from the whole blood using Ficoll-Paque Plus (GE Healthcare, Cat# 17-1440-03) density gradient centrifugation at 524×g for 40 minutes. PBMC were collected from the medium:plasma interface and washed 2 times with phosphate buffered saline (PBS). The residual red blood cells were lysed using ammonium-chloride-potassium red blood cell lysing solution (ACK, GIBCO, cat# A10492-010). Cynomolgus monkey or human PBMC (3×10⁶/ml) were stimulated with 4 μg/ml PHA (Sigma, L2769) for 48 h and 20 h, respectively. For flow cytometric analysis, 1×10⁶ PHA-activated PBMCs were used per staining in 50 μl FACS staining buffer (BD, cat# 554657). LAG-3 mAb clones or correspondent isotype controls were incubated with human or cyno PBMS followed by detection using goat anti-mouse IgG-PE (BD 550589). […] Sample acquisition was performed on an LSR II flow cytometer and the data were analyzed using FlowJo software version 10.0.6 (Tree Star, Inc.).
(§3) The data represent 3 human and 3 cynomolgus donors after stimulation with 4 ug/ml of PHA for 40 hours prior to staining.

[8] = biological target: T3, human LAG3 (Lymphocyte Activation …); assay: flow cytometry, PHA-activated human CD4+ T cells (3 donors)
Protocol: as §2, §3

B4: Ab5: humanized light chain 45AGX Humanized x[LAG3_H] mAb (LB145.22D2.E1.D1 (VL3)) Kappa (PX) and humanized heavy chain 57AHH Humanized x[LAG3_H] mAb … (antibody)
heavy: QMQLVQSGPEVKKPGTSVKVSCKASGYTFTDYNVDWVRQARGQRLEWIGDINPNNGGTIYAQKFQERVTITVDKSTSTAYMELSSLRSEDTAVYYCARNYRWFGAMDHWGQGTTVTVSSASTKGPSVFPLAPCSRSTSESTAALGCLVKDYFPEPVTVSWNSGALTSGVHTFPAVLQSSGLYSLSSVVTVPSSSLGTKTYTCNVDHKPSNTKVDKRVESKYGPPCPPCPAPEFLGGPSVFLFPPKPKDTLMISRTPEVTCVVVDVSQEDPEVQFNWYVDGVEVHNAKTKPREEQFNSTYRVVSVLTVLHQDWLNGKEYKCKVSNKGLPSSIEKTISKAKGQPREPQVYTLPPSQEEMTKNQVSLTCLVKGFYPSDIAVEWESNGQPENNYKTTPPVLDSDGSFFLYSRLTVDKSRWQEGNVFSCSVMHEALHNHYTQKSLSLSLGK
light: DIVMTQTPLSLSVTPGQPASISCKASQSLDYEGDSDMNWYLQKPGQPPQLLIYGASNLESGVPDRFSGSGSGTDFTLKISRVEAEDVGVYYCQQSTEDPRTFGGGTKVEIKRTVAAPSVFIFPPSDEQLKSGTASVVCLLNNFYPREAKVQWKVDNALQSGNSQESVTEQDSKDSTYSLSSTLTLSKADYEKHKVYACEVTHQGLSSPVTKSFNRGEC
notes: Humanized 22D2, IgG4 S228P/kappa; also called Hu22D2 VH6/VL3 (Ab 5); hu22D2 VH6/VL3
IC50 [5]: 2.6 nM | Kd [6]: 0.006 nM

B5: Ab8: humanized light chain 45AGX Humanized x[LAG3_H] mAb (LB145.22D2.E1.D1 (VL3)) Kappa (PX) and humanized heavy chain 80AHG Humanized x[LAG3_H] mAb … (antibody)
heavy: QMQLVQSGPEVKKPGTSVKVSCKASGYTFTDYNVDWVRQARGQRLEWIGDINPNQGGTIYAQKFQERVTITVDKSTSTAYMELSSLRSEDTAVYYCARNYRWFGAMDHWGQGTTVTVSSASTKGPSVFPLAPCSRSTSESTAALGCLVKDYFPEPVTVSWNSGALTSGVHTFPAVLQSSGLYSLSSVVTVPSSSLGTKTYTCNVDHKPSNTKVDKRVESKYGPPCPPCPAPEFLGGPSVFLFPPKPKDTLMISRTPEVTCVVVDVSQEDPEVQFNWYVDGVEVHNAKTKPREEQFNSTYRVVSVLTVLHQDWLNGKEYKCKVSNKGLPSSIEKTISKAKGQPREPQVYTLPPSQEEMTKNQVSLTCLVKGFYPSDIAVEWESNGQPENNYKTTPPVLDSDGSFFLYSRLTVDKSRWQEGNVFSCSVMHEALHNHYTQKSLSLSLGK
light: B4 light
notes: Humanized 22D2 N55Q, IgG4 S228P/kappa; also called Hu22D2 VH6/VL3 N55Q (Ab 8); hu22D2 VH6/VL3 N55Q
IC50 [5]: 2.5 nM | Kd [6]: 0.011 nM | EC50 [7]: 0.035 nM | EC50 [8]: 0.041 nM

B6: Ab7: humanized light chain 45AGX Humanized x[LAG3_H] mAb (LB145.22D2.E1.D1 (VL3)) Kappa (PX) and humanized heavy chain 21AHG Humanized x[LAG3_H] mAb … (antibody)
heavy: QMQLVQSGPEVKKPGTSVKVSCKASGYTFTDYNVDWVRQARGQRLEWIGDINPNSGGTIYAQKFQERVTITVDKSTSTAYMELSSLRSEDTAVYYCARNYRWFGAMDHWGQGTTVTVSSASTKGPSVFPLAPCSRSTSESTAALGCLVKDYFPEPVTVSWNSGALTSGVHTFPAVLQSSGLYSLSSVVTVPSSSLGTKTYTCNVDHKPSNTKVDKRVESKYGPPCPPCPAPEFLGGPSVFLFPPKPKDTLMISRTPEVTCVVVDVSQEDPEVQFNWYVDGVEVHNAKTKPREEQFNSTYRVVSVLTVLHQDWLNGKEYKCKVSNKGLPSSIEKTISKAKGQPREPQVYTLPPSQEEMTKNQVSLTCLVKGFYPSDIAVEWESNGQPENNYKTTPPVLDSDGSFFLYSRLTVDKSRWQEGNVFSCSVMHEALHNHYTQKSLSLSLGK
light: B4 light
notes: Humanized 22D2 N55S, IgG4 S228P/kappa; also called Hu22D2 VH6/VL3 N55S (Ab 7); hu22D2 VH6/VL3 N55S
IC50 [5]: 2.1 nM | Kd [6]: 0.01 nM | EC50 [7]: 0.049 nM | EC50 [8]: 0.057 nM

The remaining lines, values ahead:

Kd [1]: 0.0147 nM | koff [1]: 0.000109 s⁻¹ | kon [1]: 7.43e+06 M⁻¹ s⁻¹ | IC50 [2]: 2.8 nM | EC50 for IL-2 rescue, hLAG3-3A9 T cell system [3]: 1.74 nM and 1.83 nM | IC50 [4]: 2.8 nM
B1: mouse anti-human LAG3 antibody LB148.19E8.G1.1A1 (antibody, mouse IgG2b, V domains shown)
VH: QIRLQQSGPELVKPGASVKISCKASGSSFTDYYINWVKQKPGQGLEWIGWIYPGSGNSIYNENFKAKATLTVDTSSSTAYMHLSSLTSEDTAVYFCAREADYDDALDYWGQGTSVTVSS
VL: HILLTQSPAILSVSPGERVSFSCRASQSIGTSIHWYQQRTNGSPRLLIKYASESISGIPSRFSGSGSGTDFTLSINSVESEDIADYYCQQSNSWPTYTFGGGTKLEIK
notes: also called Lag3 clone 19E8

Kd [1]: 1.47 nM | koff [1]: 0.00192 s⁻¹ | kon [1]: 1.31e+06 M⁻¹ s⁻¹ | IC50 [2]: 2 nM | EC50 for IL-2 rescue, hLAG3-3A9 T cell system [3]: 3.56 nM and 4.06 nM | IC50 [4]: 2 nM
B2: mouse anti-human LAG3 antibody LB148.11C9.1C1 (antibody, mouse IgG1, V domains shown)
VH: QVQLQQPGAELVMPGASAKMSCKASGYTLTDYWMHWVKQRPGQGLEWIGAIDISDSYSSYNQKFKGKATLTVDESSSTAYMQLTSLTSEDSAVYYCARSPFYNSRGGNYFDYWGQGTTLTVSS
VL: DIQMTQTTSSLSASLGDRVTISCRASQDISNYLNWYQQKPDGTVKLLIYYTSRLHSGVPSRFSGSGSGTDYSLTISNLEQEDIATYFCQQGDTLPPWTFGGGTKLEIK
notes: also called Lag3 clone 11C9

Kd [1]: 0.0903 nM | koff [1]: 0.000113 s⁻¹ | kon [1]: 1.25e+06 M⁻¹ s⁻¹ | IC50 [2]: 1.9 nM | EC50 for IL-2 rescue, hLAG3-3A9 T cell system [3]: 2.83 nM and 2.96 nM | IC50 [4]: 1.9 nM
B3: mouse anti-human LAG3 antibody LB148.4A10.1H1 (antibody, mouse IgG2a, V domains shown)
VH: EVQLLQSGAELVRSGASVKLSCTASGFNIEDYYMHWMKQRPEQGLEWIGWIDPVNGDTEYAPKFQGKATMTADTSSNTAYLHLNSLTSEDTAVYYCNFYDGYLFAFWGQGTLVTVSA
VL: DIVLTQAAPSVPVTPGESVSISCRSSKSLLHSDGNTYLYWLLQRPGQSPQLLIYRMSNLASGVPDRFSGSGSGTVFTLRISRLEAEDVGIYYCMQHLEYPFTFGGGTKLEIK
notes: also called Lag3 clone 4A10

Kd [1]: 0.00277 nM | koff [1]: 3.84e-05 s⁻¹ | kon [1]: 1.39e+07 M⁻¹ s⁻¹ | IC50 [2]: 2.1 nM | EC50 for IL-2 rescue, hLAG3-3A9 T cell system [3]: 1.06 nM and 1.65 nM | IC50 [4]: 2.1 nM
B7: mouse anti-human LAG3 antibody LB145.22D2.E1.1D1 (antibody, mouse IgG2a, V domains shown)
VH: EVLLLQSGPELVKPGTSVKIPCKASGYTFTDYNVDWVKQRHGKGLEWIGDINPNNGGTIYSQKFKGKATLTVDKSSSTAFMELRSLTSEDTAVYFCARNYRWFGAMDHWGQGTSVTVSS
VL: DIVLTQSPASLAVSPGQRATISCKASQSLDYEGDSDMNWYQQKPGQPPRLLISGASNLESGIPARFSGSGSGTDFTVNIHPVEEEDAATYYCQQSTEDPRTFGGGTKLEIK
notes: also called Lag3 clone 22D2; LB145.22D2.E1.D1

IC50 [5]: 2.5 nM | Kd [6]: 0.003 nM
B8: 22D2 chimera: chimeric antibody [LAG3_H] mAb (LB145.22D2.E1.D1 (VH0/VL0) Geneart) IgG4 S228P/kappa (PX) (antibody, V domains shown)
VH: B7 VH
VL: B7 VL
notes: It is described as the parental LB145.22D2.E1.D1 VH0/VL0 on human IgG4 with the hinge-stabilizing S228P mutation and kappa; also called Chimeric 22D2; chimeric 22D2
